Results from patent US20120064064A1.

Molecular target: human IL1-R (human) (UniProt P14778)
Experiment: cell-based or functional assay

UniProt P14778, sequence (P14778 18-569): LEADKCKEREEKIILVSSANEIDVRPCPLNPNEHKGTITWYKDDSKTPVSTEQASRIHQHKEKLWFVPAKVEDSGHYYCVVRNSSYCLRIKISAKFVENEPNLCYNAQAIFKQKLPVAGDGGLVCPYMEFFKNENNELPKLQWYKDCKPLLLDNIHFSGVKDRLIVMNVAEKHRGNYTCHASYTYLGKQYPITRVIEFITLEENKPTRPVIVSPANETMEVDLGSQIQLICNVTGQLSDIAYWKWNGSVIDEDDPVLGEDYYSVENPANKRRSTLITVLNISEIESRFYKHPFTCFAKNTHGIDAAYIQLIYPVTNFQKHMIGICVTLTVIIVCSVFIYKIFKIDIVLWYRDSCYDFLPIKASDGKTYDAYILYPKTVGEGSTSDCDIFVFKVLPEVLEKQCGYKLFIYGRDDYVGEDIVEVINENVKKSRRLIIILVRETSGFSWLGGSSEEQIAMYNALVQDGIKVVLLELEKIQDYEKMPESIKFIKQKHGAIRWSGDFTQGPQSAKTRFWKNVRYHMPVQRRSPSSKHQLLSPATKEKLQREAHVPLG

Substance: natural IL1-R antagonist (IL1-Ra) (from UniProt P18510 26-177) (ligand)
- IL-8 release assay in MRC-5 cells (IL-1a stimulated), EC50: 0.074 nM
